Source: the RNAGym collection of RNA variant scans (doi:10.7554/elife.90254)

B1: OR4K15 (parent)
chain: GUUAACGGUCAUAGGCCAUGGAAACUAGGAGCACCAUUUCGCUGCCAGUGAAGAAAUGAACAAAGAAAAUCUGGGCCAGGCAGGCAUCAAAAGAAAUAGUCUUGCGCUCAACCAGAAAGUCUGUAAUCAUUUUAAGGGUA

Variants of: B1
Assay: self-cleavage, relative activity (ratio to wild type); higher = more cleavage; in vitro, sequencing; the parent is a self-cleaving ribozyme

Variant | self-cleavage
GUUAACGGUCAUAGGCCAUGGAAACUAGGAGCACCAUUUCGCUGCCAGUGAAGAAAUGAACAAAGAAAAUCUGGGCCAGGCAGGCACCAAAAGAAAUAGUCUUGCGCUCGACCAGAAAGUCUGUAAUCAUUUUAAGGGUA [U87C A110G] | 0.1
GUUAACGGUCAUAGGCCAUGGAAACUAGGAGCACCAUUUCGCUGCCAGUGAAGAAAUGAACAAAGAAAAUCUGGGCCAGGCAGGCACCAAAAGAAAUAGUCUUGCGCUCCACCAGAAAGUCUGUAAUCAUUUUAAGGGUA [U87C A110C] | 0.12
GUUAACGGUCAUAGGCCAUGGAAACUAGGAGCACCAUUUCGCUGCCAGUGAAGAAAUGAACAAAGAAAAUCUGGGCCAGGCAGGCACCAAAAGAAAUUGUCUUGCGCUCAACCAGAAAGUCUGUAAUCAUUUUAAGGGUA [U87C A98U] | 1.9
GUUAACGGUCAUAGGCCAUGGAAACUAGGAGCACCAUUUCGCUGCCAGUGAAGAAAUGAACAAAGAAAAUCUGGGCCAGGCAGGCACCAAAAGAAAUGGUCUUGCGCUCAACCAGAAAGUCUGUAAUCAUUUUAAGGGUA [U87C A98G] | 0.74
GUUAACGGUCAUAGGCCAUGGAAACUAGGAGCACCAUUUCGCUGCCAGUGAAGAAAUGAACAAAGAAAAUCUGGGCCAGGCAGGCAACAAAAGAAAUAGUCUUGCGCUCAACCUGAAAGUCUGUAAUCAUUUUAAGGGUA [U87A A114U] | 0.1
GUUAACGGUCAUAGGCCAUGGAAACUAGGAGCACCAUUUCGCUGCCAGUGAAGAAAUGAACAAAGAAAAUCUGGGCCAGGCAGGCAACAAAAGAAAUAGUCUUGCGCUCAACCGGAAAGUCUGUAAUCAUUUUAAGGGUA [U87A A114G] | 0.08
GUUAACGGUCAUAGGCCAUGGAAACUAGGAGCACCAUUUCGCUGCCAGUGAAGAAAUGAACAAAGAAAAUCUGGGCCAGGCAGGCAACAAAAGAAAUAGUCUUGCGCUCAACCCGAAAGUCUGUAAUCAUUUUAAGGGUA [U87A A114C] | 0.05
GUUAACGGUCAUAGGCCAUGGAAACUAGGAGCACCAUUUCGCUGCCAGUGAAGAAAUGAACAAAGAAAAUCUGGGCCAGGCAGGCUUCAAAAGAAAUAGUCUUGCGCUCAACCAGAAAGUCUGUAAUCAUCUUAAGGGUA [A86U U131C] | 1.77
GUUAACGGUCAUAGGCCAUGGAAACUAGGAGCACCAUUUCGCUGCCAGUGAAGAAAUGAACAAAGAAAAUCUGGGCCAGGCAGGCAACAAAAGAAAUAGGCUUGCGCUCAACCAGAAAGUCUGUAAUCAUUUUAAGGGUA [U87A U100G] | 2.13
GUUAACGGUCAUAGGCCAUGGAAACUAGGAGCACCAUUUCGCUGCCAGUGAAGAAAUGAACAAAGAAAAUCUGGGCCAGGCAGGCACCAAAAGAAAUAGUCUUGCGCUCAACCUGAAAGUCUGUAAUCAUUUUAAGGGUA [U87C A114U] | 0.09
GUUAACGGUCAUAGGCCAUGGAAACUAGGAGCACCAUUUCGCUGCCAGUGAAGAAAUGAACAAAGAAAAUCUGGGCCAGGCAGGCACCAAAAGAAAUAGUCUUGCGCUCAACCAGAAAGUCUGUUAUCAUUUUAAGGGUA [U87C A125U] | 1.74
GUUAACGGUCAUAGGCCAUGGAAACUAGGAGCACCAUUUCGCUGCCAGUGAAGAAAUGAACAAAGAAAAUCUGGGCCAGGCAGGCACCAAAAGAAAUAGUCUUGCGCUCAACCAGAAAGUCUGUGAUCAUUUUAAGGGUA [U87C A125G] | 0.41
GUUAACGGUCAUAGGCCAUGGAAACUAGGAGCACCAUUUCGCUGCCAGUGAAGAAAUGAACAAAGAAAAUCUGGGCCAGGCAGGCACCAAUAGAAAUAGUCUUGCGCUCAACCAGAAAGUCUGUAAUCAUUUUAAGGGUA [U87C A91U] | 1.35
GUUAACGGUCAUAGGCCAUGGAAACUAGGAGCACCAUUUCGCUGCCAGUGAAGAAAUGAACAAAGAAAAUCUGGGCCAGGCAGGCACCAAGAGAAAUAGUCUUGCGCUCAACCAGAAAGUCUGUAAUCAUUUUAAGGGUA [U87C A91G] | 1.06
GUUAACGGUCAUAGGCCAUGGAAACUAGGAGCACCAUUUCGCUGCCAGUGAAGAAAUGAACAAAGAAAAUCUGGGCCAGGCAGGCACCAAAAGAAAUAGUCUUGCGCUCAACCAGAAAGUCUGUAAUCAUUUUGAGGGUA [U87C A134G] | 1.63
GUUAACGGUCAUAGGCCAUGGAAACUAGGAGCACCAUUUCGCUGCCAGUGAAGAAAUGAACAAAGAAAAUCUGGGCCAGGCAGGCAACAAAAGAAAUAGUCUUGCGCUCAACCAGAAAGUCUGUAAUCAUUUUAGGGGUA [U87A A135G] | 2.03
GUUAACGGUCAUAGGCCAUGGAAACUAGGAGCACCAUUUCGCUGCCAGUGAAGAAAUGAACAAAGAAAAUCUGGGCCAGGCAGGCAACGAAAGAAAUAGUCUUGCGCUCAACCAGAAAGUCUGUAAUCAUUUUAAGGGUA [U87A A89G] | 0.91
GUUAACGGUCAUAGGCCAUGGAAACUAGGAGCACCAUUUCGCUGCCAGUGAAGAAAUGAACAAAGAAAAUCUGGGCCAGGCAGGCACCAAAAGAAAUAGUCUUGCGCUCAACCAGAACGUCUGUAAUCAUUUUAAGGGUA [U87C A118C] | 0.4
GUUAACGGUCAUAGGCCAUGGAAACUAGGAGCACCAUUUCGCUGCCAGUGAAGAAAUGAACAAAGAAAAUCUGGGCCAGGCAGGCUUCAAAAGAAAUAGUCUUGCGCUCAACCAGAAAGUCUGUAAUCAUUUCAAGGGUA [A86U U133C] | 2.71
GUUAACGGUCAUAGGCCAUGGAAACUAGGAGCACCAUUUCGCUGCCAGUGAAGAAAUGAACAAAGAAAAUCUGGGCCAGGCAGGCAACAAAAGAAAUAGUCUUGCGCUCAACCAGAAAGUCUGUAAUCAUCUUAAGGGUA [U87A U131C] | 1.67
